# T1: full-length mouse Ptc (patched receptor) (mouse, UniProt Q61115 1-1434)
# T1 construct: whole, on cells; Predicted mass 159 kDa
# T1 sequence (looked up): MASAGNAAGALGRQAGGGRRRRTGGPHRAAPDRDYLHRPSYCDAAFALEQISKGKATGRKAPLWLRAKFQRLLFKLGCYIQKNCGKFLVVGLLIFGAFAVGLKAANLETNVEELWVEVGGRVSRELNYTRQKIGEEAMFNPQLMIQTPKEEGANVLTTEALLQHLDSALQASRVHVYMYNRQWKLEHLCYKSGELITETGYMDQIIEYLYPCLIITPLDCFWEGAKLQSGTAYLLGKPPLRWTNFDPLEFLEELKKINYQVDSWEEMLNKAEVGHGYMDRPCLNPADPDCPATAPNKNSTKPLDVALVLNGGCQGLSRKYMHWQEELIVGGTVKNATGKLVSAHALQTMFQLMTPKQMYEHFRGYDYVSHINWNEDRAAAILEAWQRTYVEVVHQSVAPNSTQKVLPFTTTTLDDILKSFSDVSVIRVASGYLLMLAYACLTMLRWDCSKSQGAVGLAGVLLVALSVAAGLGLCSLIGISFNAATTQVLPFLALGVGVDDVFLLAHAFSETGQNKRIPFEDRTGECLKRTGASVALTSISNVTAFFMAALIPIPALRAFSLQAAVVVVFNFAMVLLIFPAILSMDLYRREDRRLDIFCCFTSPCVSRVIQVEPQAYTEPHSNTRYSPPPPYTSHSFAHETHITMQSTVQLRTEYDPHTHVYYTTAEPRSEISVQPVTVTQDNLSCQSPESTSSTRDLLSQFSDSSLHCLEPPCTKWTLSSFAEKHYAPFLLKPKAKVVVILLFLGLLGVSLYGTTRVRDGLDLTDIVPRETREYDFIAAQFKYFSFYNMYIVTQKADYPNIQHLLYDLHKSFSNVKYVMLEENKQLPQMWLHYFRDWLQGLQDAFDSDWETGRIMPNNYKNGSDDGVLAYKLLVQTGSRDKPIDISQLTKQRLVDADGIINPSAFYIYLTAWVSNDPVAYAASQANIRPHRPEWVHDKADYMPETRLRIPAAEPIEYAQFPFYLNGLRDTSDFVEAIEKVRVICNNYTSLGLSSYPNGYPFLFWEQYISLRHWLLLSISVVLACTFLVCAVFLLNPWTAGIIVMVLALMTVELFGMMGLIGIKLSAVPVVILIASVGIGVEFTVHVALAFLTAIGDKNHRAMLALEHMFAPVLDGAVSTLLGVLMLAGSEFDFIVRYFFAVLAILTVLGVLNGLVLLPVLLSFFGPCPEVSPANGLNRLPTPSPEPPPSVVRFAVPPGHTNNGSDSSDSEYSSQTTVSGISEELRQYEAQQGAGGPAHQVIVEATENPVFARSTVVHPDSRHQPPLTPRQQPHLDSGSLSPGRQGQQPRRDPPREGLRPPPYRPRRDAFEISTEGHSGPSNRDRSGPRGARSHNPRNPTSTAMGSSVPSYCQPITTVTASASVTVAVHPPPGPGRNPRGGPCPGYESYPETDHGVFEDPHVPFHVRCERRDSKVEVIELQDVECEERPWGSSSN
# B1: Shh-N SD altered protein (E90A, D132A, E138A) (ligand)
# chain: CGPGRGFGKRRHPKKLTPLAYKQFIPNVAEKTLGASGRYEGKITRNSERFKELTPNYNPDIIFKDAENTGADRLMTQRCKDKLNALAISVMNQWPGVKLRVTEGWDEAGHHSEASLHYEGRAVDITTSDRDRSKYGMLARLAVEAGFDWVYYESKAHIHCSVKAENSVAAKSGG
# B2: Shh-N SC mutant protein (P42A, K46A, R154A, S157A, S178A, K179A) (ligand)
# chain: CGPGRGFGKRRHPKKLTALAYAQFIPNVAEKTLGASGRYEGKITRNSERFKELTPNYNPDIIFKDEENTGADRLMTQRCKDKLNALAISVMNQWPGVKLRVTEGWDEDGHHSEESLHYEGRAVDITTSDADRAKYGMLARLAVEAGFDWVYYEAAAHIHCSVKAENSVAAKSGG
# notes: Limits of the entry not visible; also called SC altered protein
# B3: Shh-N SB altered protein (N51A, V52A, T56A, E168A) (ligand)
# chain: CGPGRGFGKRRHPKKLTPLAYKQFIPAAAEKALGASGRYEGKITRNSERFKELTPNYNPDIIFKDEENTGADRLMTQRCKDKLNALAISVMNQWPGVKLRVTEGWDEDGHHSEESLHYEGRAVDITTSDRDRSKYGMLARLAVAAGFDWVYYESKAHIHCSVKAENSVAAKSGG
# B4: Shh-N SG protein (S178A, K179A) (ligand)
# chain: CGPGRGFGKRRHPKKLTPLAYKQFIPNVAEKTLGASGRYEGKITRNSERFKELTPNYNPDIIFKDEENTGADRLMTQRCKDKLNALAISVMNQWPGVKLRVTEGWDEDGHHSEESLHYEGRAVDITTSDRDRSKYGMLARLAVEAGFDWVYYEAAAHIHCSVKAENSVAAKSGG
# B5: Shh-N SE protein (P42A, K46A) (ligand)
# chain: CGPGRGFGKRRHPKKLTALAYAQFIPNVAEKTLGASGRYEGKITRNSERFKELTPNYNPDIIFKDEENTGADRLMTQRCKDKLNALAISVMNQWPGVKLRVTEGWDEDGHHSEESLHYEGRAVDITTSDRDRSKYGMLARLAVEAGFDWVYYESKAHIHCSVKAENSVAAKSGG
# B6: Shh-N SF protein (R154A, S157A) (ligand)
# chain: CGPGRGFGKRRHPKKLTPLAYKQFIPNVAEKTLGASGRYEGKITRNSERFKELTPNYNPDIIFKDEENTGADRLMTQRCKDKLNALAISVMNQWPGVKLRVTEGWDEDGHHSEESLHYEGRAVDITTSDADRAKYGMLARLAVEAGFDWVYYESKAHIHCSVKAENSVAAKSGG
# B7: Shh-N SA altered protein (K75A, E76A, Y81A, D105A, N116A, E189A, K195A) (ligand)
# chain: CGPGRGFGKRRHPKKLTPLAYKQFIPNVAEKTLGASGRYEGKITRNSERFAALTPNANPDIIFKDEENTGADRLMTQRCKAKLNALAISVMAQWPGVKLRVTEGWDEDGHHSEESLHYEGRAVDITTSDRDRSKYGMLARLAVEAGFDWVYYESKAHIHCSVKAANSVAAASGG
# B8: Shh-N H135A, E177A double mutant (EH) protein (ligand)
# chain: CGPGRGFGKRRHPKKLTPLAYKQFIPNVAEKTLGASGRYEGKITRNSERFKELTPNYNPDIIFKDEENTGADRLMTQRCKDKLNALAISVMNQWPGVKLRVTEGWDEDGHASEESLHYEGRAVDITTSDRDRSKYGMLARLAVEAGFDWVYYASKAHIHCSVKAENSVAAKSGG
# Target: T2, Ptc (patched receptor) of the cells of chicken intermediate neural plate explants
# Assay: cell-based or functional assay
# T2 sequence (Q90693 whole entry): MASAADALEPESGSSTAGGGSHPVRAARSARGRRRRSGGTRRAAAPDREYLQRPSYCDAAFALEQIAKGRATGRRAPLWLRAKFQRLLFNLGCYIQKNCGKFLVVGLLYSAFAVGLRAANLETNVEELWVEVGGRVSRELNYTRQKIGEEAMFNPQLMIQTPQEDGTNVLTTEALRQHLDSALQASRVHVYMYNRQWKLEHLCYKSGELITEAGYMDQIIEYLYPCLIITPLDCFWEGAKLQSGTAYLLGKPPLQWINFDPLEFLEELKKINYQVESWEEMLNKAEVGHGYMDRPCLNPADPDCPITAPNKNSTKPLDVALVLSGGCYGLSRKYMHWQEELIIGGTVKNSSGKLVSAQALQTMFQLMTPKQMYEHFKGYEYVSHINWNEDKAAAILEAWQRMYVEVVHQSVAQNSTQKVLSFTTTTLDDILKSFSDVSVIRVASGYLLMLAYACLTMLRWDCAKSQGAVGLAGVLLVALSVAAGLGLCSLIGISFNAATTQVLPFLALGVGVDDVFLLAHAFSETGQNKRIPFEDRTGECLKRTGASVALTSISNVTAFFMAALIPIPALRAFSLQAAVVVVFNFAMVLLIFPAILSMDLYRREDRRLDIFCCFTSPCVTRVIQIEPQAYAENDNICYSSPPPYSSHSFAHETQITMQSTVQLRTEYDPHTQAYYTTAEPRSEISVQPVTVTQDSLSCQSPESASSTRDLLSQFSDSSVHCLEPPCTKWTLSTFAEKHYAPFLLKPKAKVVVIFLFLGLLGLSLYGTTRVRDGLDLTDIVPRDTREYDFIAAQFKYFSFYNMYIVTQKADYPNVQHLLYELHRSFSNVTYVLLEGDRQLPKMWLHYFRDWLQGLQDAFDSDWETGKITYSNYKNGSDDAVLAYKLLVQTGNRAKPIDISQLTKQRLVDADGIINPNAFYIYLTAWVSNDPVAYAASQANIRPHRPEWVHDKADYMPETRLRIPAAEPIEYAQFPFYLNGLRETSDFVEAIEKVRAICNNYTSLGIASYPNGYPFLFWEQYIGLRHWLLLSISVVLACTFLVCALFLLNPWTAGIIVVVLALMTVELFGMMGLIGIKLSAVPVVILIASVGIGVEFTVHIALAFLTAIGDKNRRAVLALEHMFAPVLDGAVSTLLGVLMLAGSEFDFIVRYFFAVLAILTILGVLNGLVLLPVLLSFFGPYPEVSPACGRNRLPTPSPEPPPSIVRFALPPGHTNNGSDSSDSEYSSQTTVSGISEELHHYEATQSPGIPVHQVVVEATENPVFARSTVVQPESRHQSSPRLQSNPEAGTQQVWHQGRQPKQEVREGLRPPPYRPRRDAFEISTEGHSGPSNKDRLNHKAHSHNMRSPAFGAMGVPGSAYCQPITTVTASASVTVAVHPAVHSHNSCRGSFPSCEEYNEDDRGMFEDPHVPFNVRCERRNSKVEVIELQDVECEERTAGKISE
row,reduction in neural plate signaling activity against wild type [fold],Binder
1,~2.5,B1

# Target: T1, full-length mouse Ptc (patched receptor)
# Assay: competition of the disuccinimidyl suberate crosslinking of 32P-Shh-N to Ptc-expressing EcR-293 cells
row,binding result,Binder
1,no binding,B2

# Target: T2, Ptc (patched receptor) of the cells of …
# Assay: cell-based or functional assay
# Remark: another data set of the same source
"HNF-3β induction, nM (minimum concentration for uniform induction, chicken neural plate explants) [nM]","Pax-7 repression, nM (minimum concentration for complete repression, chicken neural plate explants) [nM]",Binder
≥ 20,~4,B3
> 1000,> 1000,B2
≥ 20,~10,B1
~100,~30,B4
~100,~20,B5
≥ 100,~70,B6
≤ 20,~4,B7
≥ 20,~10,B8

# Source: patent US6942988 (Johns Hopkins, dated 2005)
